{
  "source": "patent US20020123068A1",
  "about": "“Water-soluble, fluorescent, & electrophoretically mobile peptidic substrates for enzymatic reactions and methods for their use in high-throughput screening assays” (priority 2001, published 2002)",
  "key": {"[1]": {"assay": "Solubility of peptides and fluorescent peptide conjugates in aqueous buffer", "type": "physicochemical"}, "protein kinase A (PKA)": {"target": "T1, protein kinase A (PKA) (Bos taurus, UniProt P00517)", "T1 construct": "purchased Promega (Madison, WI)", "assay": "Protein kinase A phosphorylation assay (PepTag assay kit), agarose gel electrophoresis readout", "type": "biochemical", "procedure": "The fluorescent peptides were assayed with protein kinase A (PKA) using the PepTag assay kit from Promega (Madison, WI). The concentrations of the peptides in the assay were 60 μM, and the concentration of ATP was 1 mM. After completion of the assay the 25 μL reaction mixtures were spiked with 5 μL of 50% glycerol and submitted to gel electrophoresis in a 0.8% horizontal agarose slab in 50 mM TRIS HCl, pH 8.0. The gels were imaged with a fluorescence imager. The results appear in FIG. 1. The Lissamine Kemptide reaction mixtures (− & + kinase) are included as controls. It is clear that both isomers of N-(TXR)LRRASLG [SEQ. ID NO."}, "SRC Kinase [2]": {"target": "T2, SRC Kinase (Homo sapiens, UniProt P12931)", "assay": "SRC kinase assay of fluorescent peptidic substrates, agarose gel electrophoresis readout", "type": "biochemical", "conditions": "for substrate of SRC kinase (FIG. 4): peptide 20 μM, 10 units SRC kinase, 1 h at room temperature", "procedure": "An assay of the fluorescent peptidic substrate was performed in the presence of SRC Kinase. The peptide concentration was 10 μM, and the ATP concentration was 100 μM. The reaction proceeded in a buffer comprising 25 mM sodium (N-[2-hydroxyethyl]piperazine-N′-[2-ethanesulfonate]), 20 mM magnesium chloride, pH 7.4 for 90 min at room temperature, and the reaction mixture was submitted to gel electrophoresis in a 0.8% agarose slab at pH 8.0. Nearly 75% conversion of the substrate to product took place, and the substrate and product migrated in opposite directions. The results appear in FIG. 3.\nA kinase assay was performed with each of these peptides as substrates. The concentrations of the Ac-C-[S-(BTR-Jeff)]EEFIYGAFKKKK [SEQ. ID NO. 3] and Ac-C-[S-(BTR-Jeff)]EEFIYGAFRRRR [SEQ. ID NO. 4] were 20 μM, respectively. The ATP concentration in each reaction was 100 μM, and 10 units of SRC kinase were added per reaction. The reactions proceeded at room temperature for 1 h. The reaction mixtures were spiked with 50% glycerol to give a final concentration of 10%. The samples (25 μL) were submitted to gel electrophoresis on a 0.8% agarose slab in 50 mM TRIS HCl, pH 8.0.\nThe SRC substrate Ac-C-[S-(TXR-Jeff)]EEFIYGAFKKKK [SEQ. ID NO. 5] was prepared and assayed as described by the method in Example 5 with the exceptions that TXR-Jeffamine-BAA was used as the fluorophore and the assay was allowed to proceed overnight. The results of the assay appear in FIG. 5. The anode is to the left and the cathode to the right. N-(TXR)-LRRASLG [SEQ. ID NO. 11] (Texas Red labeled Kemptide) and its phosphorylated derivative were included as mobility standards."}, "SRC Kinase [3]": {"target": "T2, SRC Kinase", "conditions": "screen done by investigators at Selectide; cited from earlier work"}, "[4]": {"system": "T3, C-[S-(TXR-Jeff)]EEEFIYGAFKKKK", "T3 sequence": "CEEEFIYGAFKKKK"}, "[5]": {"system": "T4, conjugate comprising just the BODIPY630/650 and Kemptide", "T4 sequence": "LRRASLG"}},
  "note": "Where a SMILES comes first, the peptide text is derived from it. Where no end group is shown, it is not given here. Side-chain parts run from the residue outwards. Texas Red = Texas Red: fluorescent dye",
  "data": [
    {"compound": "CC[C@H](C)[C@H](NC(=O)[C@H](Cc1ccccc1)NC(=O)[C@H](C)NC(=O)[C@H](C)NC(=O)[C@@H](N)CS)C(=O)N[C@@H](Cc1ccc(O)cc1)C(=O)NCC(=O)N[C@@H](C)C(=O)N[C@@H](Cc1ccccc1)C(=O)N[C@@H](CCCCN)C(=O)O", "note": "[CAAFIYGAFK] (H-CAAFIYGAFK-OH; N-terminus and C-terminus assumed)", "values": [
      {"measurement": "solubility", "setting": "[1]", "value": "Insolubility"}
    ]},
    {"compound": "(BODIPY-PEG)-labeled Kemptide: BODIPY630/650 coupled to Kemptide LRRASLG through a 3,400 molecular weight PEG spacer (not fully specified; also: BODIPY630/650 label, attachment site not given here)", "values": [
      {"measurement": "phosphorylation by Protein Kinase A (Example 3, FIG. 2)", "setting": "protein kinase A (PKA)", "value": "successfully phosphorylated"}
    ]},
    {"compound": "Ac-C-[S-(BTR-Jeff)]EEFIYGAFKKKK: BODIPY TR-Jeffamine ED-900 conjugate of N-acetylated peptide Ac-CEEFIYGAFKKKK (Ac-C([Jeffamine ED‑900-BODIPY TR])EEFIYGAFKKKK)", "values": [
      {"measurement": "substrate of SRC kinase (FIG. 4)", "setting": "SRC Kinase [2]; ATP 100 μM", "value": "is a substrate of SRC kinase"}
    ]},
    {"compound": "Ac-C-[S-(BTR-Jeff)]EEFIYGAFRRRR: BODIPY TR-Jeffamine ED-900 conjugate of N-acetylated peptide Ac-CEEFIYGAFRRRR (Ac-C([Jeffamine ED‑900-BODIPY TR])EEFIYGAFRRRR)", "values": [
      {"measurement": "quality/reactivity as substrate for SRC kinase (in words)", "setting": "SRC Kinase [2]", "value": "did not result in a sufficiently reactive substrate"},
      {"measurement": "substrate of SRC kinase (FIG. 4)", "setting": "SRC Kinase [2]; ATP 100 μM", "value": "is not"},
      {"measurement": "solubility", "setting": "[1]", "value": "much lower"}
    ]},
    {"compound": "Ac-C-[S-(TXR-Jeff)]EEFIYGAFKKKK: Texas Red-Jeffamine ED-900 conjugate of N-acetylated peptide Ac-CEEFIYGAFKKKK (Example 6) (Ac-C([Jeffamine ED‑900-Texas Red])EEFIYGAFKKKK)", "values": [
      {"measurement": "quality/reactivity as substrate for SRC kinase (in words)", "setting": "SRC Kinase [2]", "value": "good reactivity"}
    ]},
    {"compound": "C-[S-(TXR-Jeff)]EEEFIYGAFKKKK: Texas Red linked through a Jeffamine ED-900 PEG spacer to the cysteine thiol of peptide CEEEFIYGAFKKKK; SRC kinase substrate (C([Jeffamine ED‑900-Texas Red])EEEFIYGAFKKKK)", "values": [
      {"measurement": "quality/reactivity as substrate for SRC kinase (in words)", "setting": "SRC Kinase [2]", "value": "good substrate"},
      {"measurement": "Km", "setting": "SRC Kinase [2]; fluorescent peptide as substrate for SRC Kinase", "value": 8.5, "unit": "µM"},
      {"measurement": "conversion of the substrate to product", "setting": "SRC Kinase [2]; peptide 10 μM, ATP 100 μM, pH 7.4, 90 min at room temperature", "value": "~75", "unit": "%"}
    ]},
    {"compound": "FIYGAFK (Test Substrate Sequence)", "values": [
      {"measurement": "active substrate of SRC Kinase in resin-bound peptide library screen", "setting": "SRC Kinase [3]", "value": "active substrate"}
    ]},
    {"compound": "N-(TXR)LRRASLG: Texas Red-X labeled Kemptide prepared for comparison (Example 1) ({Texas Red‑X}-LRRASLG)", "values": [
      {"measurement": "substrate for PKA (FIG. 1)", "setting": "protein kinase A (PKA); peptide 60 μM, ATP 1 mM", "value": "substrates for PKA"}
    ]},
    {"compound": "SRC kinase", "values": [
      {"measurement": "Km (kinase assay)", "setting": "[4]", "value": "Km=8.5 µM"},
      {"measurement": "conversion of the substrate to product (kinase assay, agarose gel electrophoresis)", "setting": "[4]", "value": "Nearly 75% conversion of the substrate to product took place"}
    ]},
    {"compound": "conjugate comprising just the BODIPY630/650 and Kemptide: BODIPY630/650 coupled to Kemptide LRRASLG without PEG spacer (also: BODIPY630/650 coupled without spacer, site not given here) [reference compound]", "values": [
      {"measurement": "solubility", "setting": "[1]", "value": "so low"},
      {"measurement": "phosphorylation by Protein Kinase A (Example 3, FIG. 2)", "setting": "protein kinase A (PKA)", "value": "could not phosphorylate"}
    ]},
    {"compound": "protein kinase A (PKA)", "values": [
      {"measurement": "phosphorylation", "setting": "[5]", "value": "its solubility was so low that Protein Kinase A could not phosphorylate it"}
    ]}
  ]
}
